For this test, the target named is BDCA-2 (CLEC4C, CD303) on human plasmacytoid dendritic cells (purified pDC or pDC within PBMC) (human) (UniProt Q8WTT0). Description: cell-based or functional assay.
Chain of BDCA-2 (CLEC4C, CD303) on human plasmacytoid dendritic cells (purified pDC or pDC within PBMC) (human) (Q8WTT0 whole entry): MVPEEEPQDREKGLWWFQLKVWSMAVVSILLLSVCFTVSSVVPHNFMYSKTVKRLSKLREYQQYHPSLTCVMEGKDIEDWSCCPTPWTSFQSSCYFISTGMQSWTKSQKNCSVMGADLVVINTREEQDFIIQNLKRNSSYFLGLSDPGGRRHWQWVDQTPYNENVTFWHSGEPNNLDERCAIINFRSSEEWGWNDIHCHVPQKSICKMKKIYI

B1: anti-BDCA-2 mAb BIIB059 (from patent WO2014093396) (antibody, INN chains, looked up, V domains shown)
VH: DVQLVESGGGLVKPGGSLRLSCAASGFTFSTYTMSWVRQAPGKGLEWVATISPGDSFGYYYPDSVQGRFTISRDNAKNSLYLQMNSLRAEDTAVYYCTRDIYYNYGAWFAYWGQGTLVTVSS
VL: DIQLTQSPSSLSASVGDRVTITCKASQSVDYDGDSYMNWYQQKPGKAPKLLIYAASTLESGVPSRFSGSGSGTDFTLTISSLQPEDFATYYCQQANEDPRTFGQGTKVEIK
In turn, B1 showed an IC50, nM; inhibition of IFNα from ODN stimulated healthy donor PBMC of 0.85 nM; an IC50, ng/ml; inhibition of IFNα from ODN stimulated healthy donor PBMC of 128 ng/mL; an IC90, nM; inhibition of IFNα from ODN stimulated healthy donor PBMC of 7.68 nM; an IC90, ng/ml; inhibition of IFNα from ODN stimulated healthy donor PBMC of 1150 ng/mL.

For the origin of these results see patent US20220162322A1.
